Data taken from PMC10540216, “Activity Guided Azide-methyllysine Photo-trapping for Substrate Profiling of Lysine Demethylases” (Journal of the American Chemical Society, 2023).

tested on: KDM4A-I71AzF; assay: CASI: photo-crosslinking with HEK293T cell extracts, StrepTactin enrichment and LC-MS/MS proteomics; type: binding, human; conditions: sheet "Final results but with 0.01";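 further: lysates from HEK293T cells pretreated with a KDM4 inhibitor to raise proteome methylation, affinity-purified after ±UV, gel-resolved, trypsin-digested, with exclusive unique peptides per protein averaged per condition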

Molecule | Fold change (+UV/-UV)
GTF2I_HUMAN (protein, UniProt P78347 2-998, looked up) General transcription factor …: AQVAMSTLPVEDEESSESRMVVTFLMSALESMCKELAKSKAEVACIAVYETDVFVVGTERGRAFVNTRKDFQKDFVKYCVEEEEKAAEMHKMKSTTQANRMSVDAVEIETLRKTVEDYFCFCYGKALGKSTVVPVPYEKMLRDQSAVVVQGLPEGVAFKHPENYDLATLKWILENKAGISFIIKRPFLEPKKHVGGRVMVTDADRSILSPGGSCGPIKVKTEPTEDSGISLEMAAVTVKEESEDPDYYQYNIQAGPSETDDVDEKQPLSKPLQGSHHSSEGNEGTEMEVPAEDSTQHVPSETSEDPEVEVTIEDDDYSPPSKRPKANELPQPPVPEPANAGKRKVREFNFEKWNARITDLRKQVEELFERKYAQAIKAKGPVTIPYPLFQSHVEDLYVEGLPEGIPFRRPSTYGIPRLERILLAKERIRFVIKKHELLNSTREDLQLDKPASGVKEEWYARITKLRKMVDQLFCKKFAEALGSTEAKAVPYQKFEAHPNDLYVEGLPENIPFRSPSWYGIPRLEKIIQVGNRIKFVIKRPELLTHSTTEVTQPRTNTPVKEDWNVRITKLRKQVEEIFNLKFAQALGLTEAVKVPYPVFESNPEFLYVEGLPEGIPFRSPTWFGIPRLERIVRGSNKIKFVVKKPELVISYLPPGMASKINTKALQSPKRPRSPGSNSKVPEIEVTVEGPNNNNPQTSAVRTPTQTNGSNVPFKPRGREFSFEAWNAKITDLKQKVENLFNEKCGEALGLKQAVKVPFALFESFPEDFYVEGLPEGVPFRRPSTFGIPRLEKILRNKAKIKFIIKKPEMFETAIKESTSSKSPPRKINSSPNVNTTASGVEDLNIIQVTIPDDDNERLSKVEKARQLREQVNDLFSRKFGEAIGMGFPVKVPYRKITINPGCVVVDGMPPGVSFKAPSYLEISSMRRILDSAEFIKFTVIRPFPGLVINNQLVDQSESEGPVIQESAEPSQLEVPATEEIKETDGSSQIKQEPDPTW | 3
SMC3_HUMAN (protein, UniProt Q9UQE7 1-1217, looked up) Structural maintenance of …: MYIKQVIIQGFRSYRDQTIVDPFSSKHNVIVGRNGSGKSNFFYAIQFVLSDEFSHLRPEQRLALLHEGTGPRVISAFVEIIFDNSDNRLPIDKEEVSLRRVIGAKKDQYFLDKKMVTKNDVMNLLESAGFSRSNPYYIVKQGKINQMATAPDSQRLKLLREVAGTRVYDERKEESISLMKETEGKREKINELLKYIEERLHTLEEEKEELAQYQKWDKMRRALEYTIYNQELNETRAKLDELSAKRETSGEKSRQLRDAQQDARDKMEDIERQVRELKTKISAMKEEKEQLSAERQEQIKQRTKLELKAKDLQDELAGNSEQRKRLLKERQKLLEKIEEKQKELAETEPKFNSVKEKEERGIARLAQATQERTDLYAKQGRGSQFTSKEERDKWIKKELKSLDQAINDKKRQIAAIHKDLEDTEANKEKNLEQYNKLDQDLNEVKARVEELDRKYYEVKNKKDELQSERNYLWREENAEQQALAAKREDLEKKQQLLRAATGKAILNGIDSINKVLDHFRRKGINQHVQNGYHGIVMNNFECEPAFYTCVEVTAGNRLFYHIVDSDEVSTKILMEFNKMNLPGEVTFLPLNKLDVRDTAYPETNDAIPMISKLRYNPRFDKAFKHVFGKTLICRSMEVSTQLARAFTMDCITLEGDQVSHRGALTGGYYDTRKSRLELQKDVRKAEEELGELEAKLNENLRRNIERINNEIDQLMNQMQQIETQQRKFKASRDSILSEMKMLKEKRQQSEKTFMPKQRSLQSLEASLHAMESTRESLKAELGTDLLSQLSLEDQKRVDALNDEIRQLQQENRQLLNERIKLEGIITRVETYLNENLRKRLDQVEQELNELRETEGGTVLTATTSELEAINKRVKDTMARSEDLDNSIDKTEAGIKELQKSMERWKNMEKEHMDAINHDTKELEKMTNRQGMLLKKKEECMKKIRELGSLPQEAFEKYQTLSLKQLFRKLEQCNTELKKYSHVNKKALDQFVNFSEQKEKLIKRQEELDRGYKSIMELMNVLELRKYEAIQLTFKQVSKNFSEVFQKLVPGGKATLVMKKGDVEGSQSQDEGEGSGESERGSGSQSSVPSVDQFTGVGIRVSFTGKQGEMREMQQLSGGQKSLVALALIFAIQKCDPAPFYLFDEIDQALDAQHRKAVSDMIMELAVHAQFITTTFRPELLESADKFYGVKFRNKVSHIDVITAEMAKDFVEDDTTHG | 0.375
SF3B2_HUMAN (protein, UniProt Q13435 1-895, looked up) Splicing factor 3B subunit 2: MATEHPEPPKAELQLPPPPPPGHYGAWAAQELQAKLAEIGAPIQGNREELVERLQSYTRQTGIVLNRPVLRGEDGDKAAPPPMSAQLPGIPMPPPPLGLPPLQPPPPPPPPPPGLGLGFPMAHPPNLGPPPPLRVGEPVALSEEERLKLAQQQAALLMQQEERAKQQGDHSLKEHELLEQQKRAAVLLEQERQQEIAKMGTPVPRPPQDMGQIGVRTPLGPRVAAPVGPVGPTPTVLPMGAPVPRPRGPPPPPGDENREMDDPSVGPKIPQALEKILQLKESRQEEMNSQQEEEEMETDARSSLGQSASETEEDTVSVSKKEKNRKRRNRKKKKKPQRVRGVSSESSGDREKDSTRSRGSDSPAADVEIEYVTEEPEIYEPNFIFFKRIFEAFKLTDDVKKEKEKEPEKLDKLENSAAPKKKGFEEEHKDSDDDSSDDEQEKKPEAPKLSKKKLRRMNRFTVAELKQLVARPDVVEMHDVTAQDPKLLVHLKATRNSVPVPRHWCFKRKYLQGKRGIEKPPFELPDFIKRTGIQEMREALQEKEEQKTMKSKMREKVRPKMGKIDIDYQKLHDAFFKWQTKPKLTIHGDLYYEGKEFETRLKEKKPGDLSDELRISLGMPVGPNAHKVPPPWLIAMQRYGPPPSYPNLKIPGLNSPIPESCSFGYHAGGWGKPPVDETGKPLYGDVFGTNAAEFQTKTEEEEIDRTPWGELEPSDEESSEEEEEEESDEDKPDETGFITPADSGLITPGGFSSVPAGMETPELIELRKKKIEEAMDGSETPQLFTVLPEKRTATVGGAMMGSTHIYDMSTVMSRKGPAPELQGVEVALAPEELELDPMAMTQKYEEHVREQQAQVEKEDFSDMVAEHAAKQKQKKRKAQPQDSRGGSKKYKEFKF | 0.7273
DHX30_HUMAN (protein, UniProt Q7L2E3 1-1194, looked up) ATP-dependent RNA helicase …: MFSLDSFRKDRAQHRQRQCKLPPPRLPPMCVNPTPGGTISRASRDLLKEFPQPKNLLNSVIGRALGISHAKDKLVYVHTNGPKKKKVTLHIKWPKSVEVEGYGSKKIDAERQAAAAACQLFKGWGLLGPRNELFDAAKYRVLADRFGSPADSWWRPEPTMPPTSWRQLNPESIRPGGPGGLSRSLGREEEEDEEEELEEGTIDVTDFLSMTQQDSHAPLRDSRGSSFEMTDDDSAIRALTQFPLPKNLLAKVIQIATSSSTAKNLMQFHTVGTKTKLSTLTLLWPCPMTFVAKGRRKAEAENKAAALACKKLKSLGLVDRNNEPLTHAMYNLASLRELGETQRRPCTIQVPEPILRKIETFLNHYPVESSWIAPELRLQSDDILPLGKDSGPLSDPITGKPYVPLLEAEEVRLSQSLLELWRRRGPVWQEAPQLPVDPHRDTILNAIEQHPVVVISGDTGCGKTTRIPQLLLERYVTEGRGARCNVIITQPRRISAVSVAQRVSHELGPSLRRNVGFQVRLESKPPSRGGALLFCTVGILLRKLQSNPSLEGVSHVIVDEVHERDVNTDFLLILLKGLQRLNPALRLVLMSATGDNERFSRYFGGCPVIKVPGFMYPVKEHYLEDILAKLGKHQYLHRHRHHESEDECALDLDLVTDLVLHIDARGEPGGILCFLPGWQEIKGVQQRLQEALGMHESKYLILPVHSNIPMMDQKAIFQQPPVGVRKIVLATNIAETSITINDIVHVVDSGLHKEERYDLKTKVSCLETVWVSRANVIQRRGRAGRCQSGFAYHLFPRSRLEKMVPFQVPEILRTPLENLVLQAKIHMPEKTAVEFLSKAVDSPNIKAVDEAVILLQEIGVLDQREYLTTLGQRLAHISTDPRLAKAIVLAAIFRCLHPLLVVVSCLTRDPFSSSLQNRAEVDKVKALLSHDSGSDHLAFVRAVAGWEEVLRWQDRSSRENYLEENLLYAPSLRFIHGLIKQFSENIYEAFLVGKPSDCTLASAQCNEYSEEEELVKGVLMAGLYPNLIQVRQGKVTRQGKFKPNSVTYRTKSGNILLHKSTINREATRLRSRWLTYFMAVKSNGSVFVRDSSQVHPLAVLLLTDGDVHIRDDGRRATISLSDSDLLRLEGDSRTVRLLKELRRALGRMVERSLRSELAALPPSVQEEHGQLLALLAELLRGPCGSFDVRKTADD | 0.75
